In patent publication US20080026996A1, “Selective Vpac2 Receptor Reptide Agonists” (ELI LILLY AND COMPANY, priority 2004, published 2008):
Numbering of substitutions follows the chain as printed. Numbers in names are those of the source.

T1: human VPAC2 receptor (human), P41587
T1 chain: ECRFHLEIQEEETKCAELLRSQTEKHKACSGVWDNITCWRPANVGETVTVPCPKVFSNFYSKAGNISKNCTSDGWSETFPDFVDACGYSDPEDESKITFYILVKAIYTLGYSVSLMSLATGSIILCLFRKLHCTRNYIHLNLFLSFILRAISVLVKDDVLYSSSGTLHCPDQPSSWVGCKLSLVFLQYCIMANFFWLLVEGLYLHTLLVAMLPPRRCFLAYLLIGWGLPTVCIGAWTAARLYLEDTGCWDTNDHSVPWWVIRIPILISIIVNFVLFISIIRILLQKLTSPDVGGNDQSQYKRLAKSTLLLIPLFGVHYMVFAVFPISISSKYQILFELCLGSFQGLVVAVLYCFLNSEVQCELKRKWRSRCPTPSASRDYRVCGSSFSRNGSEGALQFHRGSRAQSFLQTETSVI

T2: rat PAC1 receptor (rat, UniProt P32215 20-523)
T2 sequence (looked up): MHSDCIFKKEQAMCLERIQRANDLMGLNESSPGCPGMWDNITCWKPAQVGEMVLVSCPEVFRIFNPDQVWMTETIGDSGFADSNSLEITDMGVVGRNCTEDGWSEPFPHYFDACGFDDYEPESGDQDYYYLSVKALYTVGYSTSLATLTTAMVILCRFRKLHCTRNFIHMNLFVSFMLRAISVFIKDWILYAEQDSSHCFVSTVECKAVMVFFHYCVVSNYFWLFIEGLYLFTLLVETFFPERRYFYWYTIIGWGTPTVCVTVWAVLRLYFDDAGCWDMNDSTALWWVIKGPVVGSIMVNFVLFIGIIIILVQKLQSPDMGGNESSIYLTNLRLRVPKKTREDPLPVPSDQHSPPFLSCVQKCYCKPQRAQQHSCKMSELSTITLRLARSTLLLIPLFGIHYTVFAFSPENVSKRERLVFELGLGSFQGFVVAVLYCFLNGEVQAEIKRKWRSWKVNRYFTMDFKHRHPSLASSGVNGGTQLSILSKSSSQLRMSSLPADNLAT

T3: human VPAC2 receptor (human, UniProt P41587 24-438)
T3 sequence (looked up): T1 chain

T4: rat VPAC2 receptor (rat, UniProt P35000 23-437)
T4 construct: whole, on cells; transfected CHO-PO cells in DiscoveRx
T4 sequence (looked up): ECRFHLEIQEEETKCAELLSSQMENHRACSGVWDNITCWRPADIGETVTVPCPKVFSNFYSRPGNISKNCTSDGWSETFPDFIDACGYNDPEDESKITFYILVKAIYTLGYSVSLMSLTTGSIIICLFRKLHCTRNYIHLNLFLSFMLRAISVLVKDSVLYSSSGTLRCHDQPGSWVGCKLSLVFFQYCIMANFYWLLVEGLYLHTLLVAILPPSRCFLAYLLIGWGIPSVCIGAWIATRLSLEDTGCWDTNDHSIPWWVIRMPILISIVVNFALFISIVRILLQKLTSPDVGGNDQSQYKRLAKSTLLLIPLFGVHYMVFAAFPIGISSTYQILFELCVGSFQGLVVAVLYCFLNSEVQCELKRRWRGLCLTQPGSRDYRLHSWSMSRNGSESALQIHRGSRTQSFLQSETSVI

T5: rat VPAC1 receptor (rat, UniProt P30083 31-459)
T5 sequence (looked up): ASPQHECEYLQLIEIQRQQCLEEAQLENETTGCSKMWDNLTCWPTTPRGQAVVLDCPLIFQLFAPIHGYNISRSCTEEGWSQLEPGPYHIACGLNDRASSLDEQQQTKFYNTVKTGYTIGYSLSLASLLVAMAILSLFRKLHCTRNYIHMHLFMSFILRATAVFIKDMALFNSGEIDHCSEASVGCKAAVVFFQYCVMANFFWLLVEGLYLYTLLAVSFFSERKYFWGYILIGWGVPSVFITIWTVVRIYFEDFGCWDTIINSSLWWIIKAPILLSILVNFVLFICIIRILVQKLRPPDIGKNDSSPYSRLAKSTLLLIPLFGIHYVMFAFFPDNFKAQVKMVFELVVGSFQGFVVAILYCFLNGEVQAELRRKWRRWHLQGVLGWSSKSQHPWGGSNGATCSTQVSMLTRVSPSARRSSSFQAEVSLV

B1: P213 (peptide)
peptide: HSDAVFTDNYTRLRKQVAAKRYLQSIRNGGPSSGAPPPS
modifications: not checked
B2: P214 (peptide)
peptide: B1 peptide with K20R
modifications: not checked
B3: P104 (peptide)
peptide: MHSDAVFTDNYTRLRKQVAAKKYLQSIKNKRYGGPSSGAPPPS
modifications: N-terminal methionine added (M-)
notes: also called VPAC2-P104

Tests used:
[1] = biological target: T1, human VPAC2 receptor (human), P41587; assay: cell-based or functional assay
rat PAC1 receptor = biological target: T2, rat PAC1 receptor; assay: cell-based or functional assay
human VPAC2 receptor = biological target: T3, human VPAC2 receptor; assay: cell-based or functional assay
rat VPAC2 receptor [2] = biological target: T4, rat VPAC2 receptor; assay: IC50 on rat VPAC1 over IC50 on rat VPAC2
Description: Each assay is done in duplicate and performed on two different membrane preparations.
TABLE 3 Binding data are expressed as the IC₅₀ values of tracer inhibition. A different reference compound is used as the tracer for the VPAC1 receptor and for the VPAC2 receptor. The last column represents the ratio between the IC₅₀ values on VPAC1 and VPAC2 receptor and is, thus, an index of selectivity for a receptor subtype. […] The values are given with the standard error.

rat VPAC1 receptor [3] = biological target: T5, rat VPAC1 receptor; assay: cell-based or functional assay
rat VPAC2 receptor [4] = biological target: T4, rat VPAC2 receptor; assay: cell-based or functional assay
rat VPAC1 receptor [5] = biological target: T5, rat VPAC1 receptor; assay: cell-based or functional assay; remark: listed apart in the source
rat VPAC2 receptor [6] = biological target: T4, rat VPAC2 receptor; assay: cell-based or functional assay; remark: listed apart in the source

Binder	EC50 cAMP, Alpha Screen [1]	adenylate cyclase potency ratio compared to PACAP-27 (rat PAC1 receptor)	EC50 cAMP, Alpha Screen (human VPAC2 receptor)	VPAC1/VPAC2 (ratio of IC50 values) (rat VPAC2 receptor [2])	cAMP max (rat VPAC1 receptor [3])	VPAC1/VPAC2 (EC50 ratio) (rat VPAC2 receptor [4])	cAMP max (rat VPAC2 receptor [4])	EC50 cAMP, DiscoveRx (rat VPAC1 receptor [5])	EC50 cAMP, DiscoveRx (rat VPAC2 receptor [6])
B1	0.24 nM								
B2	0.16 nM								
B3		> 1000 fold	0.27 nM	977	195	184	129	6.75 nM	0.51 nM
